For series [1], the target named is T1, Ste4p, P18851.
T1 chain: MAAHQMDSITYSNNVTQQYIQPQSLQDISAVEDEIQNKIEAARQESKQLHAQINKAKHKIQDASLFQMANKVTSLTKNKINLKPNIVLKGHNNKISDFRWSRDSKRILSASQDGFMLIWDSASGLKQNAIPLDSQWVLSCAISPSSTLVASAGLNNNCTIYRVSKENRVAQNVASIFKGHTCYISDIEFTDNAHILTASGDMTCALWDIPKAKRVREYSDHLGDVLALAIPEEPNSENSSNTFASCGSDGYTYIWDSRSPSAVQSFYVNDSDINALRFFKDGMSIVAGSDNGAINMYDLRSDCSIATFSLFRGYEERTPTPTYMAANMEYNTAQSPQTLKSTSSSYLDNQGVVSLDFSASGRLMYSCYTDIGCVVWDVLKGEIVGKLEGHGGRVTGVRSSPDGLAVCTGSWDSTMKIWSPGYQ

Series [2] has as its target T2, HA-Ste4p (Saccharomyces cerevisiae (yeast), UniProt P18851 1-423).
T2 sequence (looked up): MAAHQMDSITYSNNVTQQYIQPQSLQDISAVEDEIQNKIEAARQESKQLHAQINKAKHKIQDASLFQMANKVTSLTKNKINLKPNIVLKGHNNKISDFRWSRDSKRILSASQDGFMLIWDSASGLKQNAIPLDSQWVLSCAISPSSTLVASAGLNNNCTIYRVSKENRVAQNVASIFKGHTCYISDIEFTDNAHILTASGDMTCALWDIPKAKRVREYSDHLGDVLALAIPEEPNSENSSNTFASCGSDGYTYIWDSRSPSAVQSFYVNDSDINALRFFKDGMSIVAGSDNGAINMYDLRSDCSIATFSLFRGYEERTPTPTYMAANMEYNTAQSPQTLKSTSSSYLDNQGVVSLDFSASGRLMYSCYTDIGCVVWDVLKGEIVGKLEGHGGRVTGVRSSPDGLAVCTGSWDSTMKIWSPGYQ
Kind of series: co-immunoprecipitation from yeast extracts, densitometry of Western blots, against untreated cells. The protocol: (A) Time course of pheromone-induced Ste20p binding to HA-Ste4p. HA-Ste4p expressed from the STE4 promoter in cells deleted for STE4 was immunoprecipitated after treatment with […] a-factor. Relative amounts of Ste20p and HA-Ste4p were determined in Western blots (see example in upper and middle panels) and quantified densitometrically (mean values ±SD, n=3) (lower panel). (B) Association of Ste5p with HA-Ste4p expressed from the STE4 promoter in cells deleted for STE4 . HA-Ste4p immunoprecipitates from exponentially growing (−) and pheromone-treated (90 minutes) (+) yeast cells were analyzed with antibodies to Ste5p (upper panel) or HA-Ste4p (lower panel). (C) Overexpression of Ste4p leads to binding to Ste20p. HA-Ste4p was overexpressed from the GAL1 promoter in cells deleted for STE20 (lane 1) or STE4 (lanes 2 and 3). HA-Ste4p expression was suppressed in glucose-containing medium in cells deleted for STE4 (lane 4). Immunoprecipitates obtained with antibodies to Ste20p (lanes 1 and 2) or the HA-epitope (lanes 3 and 4) were analyzed for the presence of Ste20p (upper panel) and HA-Ste4p (lower panel). (D) Coimmunoprecipitation of HA-Ste4p and Ste20p truncation mutants. […] HA-Ste4p (lanes 1 and 2) and Ste20p (lanes 3 and 4) immunoprecipitates were analyzed for the presence of Ste20p (upper panel) and HA-Ste4p (lower panel) by Western blot analyses. […]
A general note: In western blotting, separated proteins are transferred to a membrane and probed.

Series [3] concerns the target T2, HA-Ste4p. Kind of series: co-immunoprecipitation from yeast extracts, Western blot.
The target of series [4] is T3, GST-Ste20p FL (Saccharomyces cerevisiae (yeast), UniProt Q03497 1-939).
T3 construct: Purified on glutathione-Sepharose beads; also called GST fusion with full length Ste20p; not shown: glutathione S-transferase (GST), amino-terminal fusion partner
T3 sequence: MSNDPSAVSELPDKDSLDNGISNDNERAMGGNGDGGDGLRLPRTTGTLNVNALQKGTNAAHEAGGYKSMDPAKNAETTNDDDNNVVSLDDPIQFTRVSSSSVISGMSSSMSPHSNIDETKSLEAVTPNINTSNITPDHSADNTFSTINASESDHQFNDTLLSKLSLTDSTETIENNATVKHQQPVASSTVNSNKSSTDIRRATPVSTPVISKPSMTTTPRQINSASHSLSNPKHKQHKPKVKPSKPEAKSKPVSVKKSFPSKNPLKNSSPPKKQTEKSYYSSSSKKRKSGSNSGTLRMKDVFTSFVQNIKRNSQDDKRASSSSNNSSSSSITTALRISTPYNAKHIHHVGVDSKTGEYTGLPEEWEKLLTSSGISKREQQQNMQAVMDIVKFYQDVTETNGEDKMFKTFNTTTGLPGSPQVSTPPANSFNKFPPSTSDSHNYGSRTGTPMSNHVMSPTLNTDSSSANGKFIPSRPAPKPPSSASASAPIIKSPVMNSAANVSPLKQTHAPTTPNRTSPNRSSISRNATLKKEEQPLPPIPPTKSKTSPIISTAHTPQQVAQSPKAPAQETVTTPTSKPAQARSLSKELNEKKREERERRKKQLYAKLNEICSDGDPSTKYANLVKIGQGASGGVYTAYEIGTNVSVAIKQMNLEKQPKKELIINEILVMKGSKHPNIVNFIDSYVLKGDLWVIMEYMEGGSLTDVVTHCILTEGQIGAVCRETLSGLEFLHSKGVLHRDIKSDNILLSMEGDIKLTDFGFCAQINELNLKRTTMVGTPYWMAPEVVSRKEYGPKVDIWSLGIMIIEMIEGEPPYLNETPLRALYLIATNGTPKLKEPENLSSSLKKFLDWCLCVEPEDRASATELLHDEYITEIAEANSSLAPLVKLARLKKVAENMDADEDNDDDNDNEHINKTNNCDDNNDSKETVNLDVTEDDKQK
The series is described as follows: GST pull-down of in vitro-translated HA-Ste18p.

“And” between values parts separate entries of the source, which are not always exact repeats. Equal values may be shown once. Some results are limits rather than exact numbers.

B1: Ste20p (enzyme)
chain: MSNDPSAVSELPDKDSLDNGISNDNERAMGGNGDGGDGLRLPRTTGTLNVNALQKGTNAAHEAGGYKSMDPAKNAETTNDDDNNVVSLDDPIQFTRVSSSSVISGMSSSMSPHSNIDETKSLEAVTPNINTSNITPDHSADNTFSTINASESDHQFNDTLLSKLSLTDSTETIENNATVKHQQPVASSTVNSNKSSTDIRRATPVSTPVISKPSMTTTPRQINSASHSLSNPKHKQHKPKVKPSKPEAKSKPVSVKKSFPSKNPLKNSSPPKKQTEKSYYSSSSKKRKSGSNSGTLRMKDVFTSFVQNIKRNSQDDKRASSSSNNSSSSSITTALRISTPYNAKHIHHVGVDSKTGEYTGLPEEWEKLLTSSGISKREQQQNMQAVMDIVKFYQDVTETNGEDKMFKTFNTTTGLPGSPQVSTPPANSFNKFPPSTSDSHNYGSRTGTPMSNHVMSPTLNTDSSSANGKFIPSRPAPKPPSSASASAPIIKSPVMNSAANVSPLKQTHAPTTPNRTSPNRSSISRNATLKKEEQPLPPIPPTKSKTSPIISTAHTPQQVAQSPKAPAQETVTTPTSKPAQARSLSKELNEKKREERERRKKQLYAKLNEICSDGDPSTKYANLVKIGQGASGGVYTAYEIGTNVSVAIKQMNLEKQPKKELIINEILVMKGSKHPNIVNFIDSYVLKGDLWVIMEYMEGGSLTDVVTHCILTEGQIGAVCRETLSGLEFLHSKGVLHRDIKSDNILLSMEGDIKLTDFGFCAQINELNLKRTTMVGTPYWMAPEVVSRKEYGPKVDIWSLGIMIIEMIEGEPPYLNETPLRALYLIATNGTPKLKEPENLSSSLKKFLDWCLCVEPEDRASATELLHDEYITEIAEANSSLAPLVKLARLKKVAENMDADEDNDDDNDNEHINKTNNCDDNNDSKETVNLDVTEDDKQK
notes: Full length Ste20p in yeast cells (endogenous, or from pDH166 / pSTE20-5); also called STE20^WT; wild-type Ste20p
As to B1, in series [1], the FUS1::lacZ expression is 274; the FUS1::lacZ expression, Basal was found to be 0.1; the FUS1::lacZ expression, Induced worked out at 221; the G1 arrest result is on record as “+”. Moreover, in series [1], the Mating efficiencies (%) is 72.7% and 89.8%; the Shmoo formation result is listed as “+”. Also, the “fold increase in the interaction after pheromone treatment” value in series [2] is roughly 5 fold.

B2: Ste20p^495-877 (enzyme)
chain: MNSAANVSPLKQTHAPTTPNRTSPNRSSISRNATLKKEEQPLPPIPPTKSKTSPIISTAHTPQQVAQSPKAPAQETVTTPTSKPAQARSLSKELNEKKREERERRKKQLYAKLNEICSDGDPSTKYANLVKIGQGASGGVYTAYEIGTNVSVAIKQMNLEKQPKKELIINEILVMKGSKHPNIVNFIDSYVLKGDLWVIMEYMEGGSLTDVVTHCILTEGQIGAVCRETLSGLEFLHSKGVLHRDIKSDNILLSMEGDIKLTDFGFCAQINELNLKRTTMVGTPYWMAPEVVSRKEYGPKVDIWSLGIMIIEMIEGEPPYLNETPLRALYLIATNGTPKLKEPENLSSSLKKFLDWCLCVEPEDRASATELLHDEYITEIAEA
notes: Overexpressed from the GAL1 promoter (pDH171) in cells deleted for STE20; also called STE20^495-877
Regarding B2, in series [1], the FUS1::lacZ expression, Basal is less than 0.1; the FUS1::lacZ expression, Induced is less than 0.1; the G1 arrest entry is “-”; the Mating efficiencies (%) worked out at 0.02%. For the same molecule, the Shmoo formation entry in series [1] was “-”. Also, the binding result in series [3] is on record as “no binding”.

B3: HA-Ste18p (other, Saccharomyces cerevisiae (yeast), UniProt P18852 1-110, looked up, not shown: small tags and cut ends)
chain: MTSVQNSPRLQQPQEQQQQQQQLSLKIKQLKLKRINELNNKLRKELSRERITASNACLTIINYTSNTKDYTLPELWGYPVAGSNHFIEGLKNAQKNSQMSNSNSVCCTLM
notes: In vitro-translated from pBTL65; also called in vitro-translated HA-Ste18p; γ-subunit of the mating response G-protein
Take B3: the binding result in series [4] was “no binding”.

The values above are taken from US20020106690A1 (published 2002).
